{
  "source": "patent US11015206B2",
  "about": "“Compositions and methods comprising sequences having hydroxyphenylpyruvate dioxygenase (HPPD) activity” (PIONEER HI-BRED INTERNATIONAL, INC., priority 2014, dated 2021)",
  "molecules": {"B1": {"name": "R7-9070: shuffled maize HPPD, Round 7, variant 9070 (SEQ ID NO:2); backbone for saturation mutagenesis (protein)", "chain": "MGPTPTATAAGAAVAAASAAEQAAFRLVGHRNFVRFNPRSDRFQTLAFHHVELWCADAASAAGRFSFALGVPLAARSDLSTGNSAHASLLLRSGSLSLLFTAPYAHGADAATAALPSFSAAAARRFAADHGLAVRAVALRVADAEDAFRASVAAGARPAFGPVDLGRGFRLAEVELYGDVVLRYVSYPDGAAGEPFLPGFEGVASPGAADYGLSRFDHIVGNVPELAPAAAYMAGFTGFHEFAEFTTEDVGTTESGLNSMALANNSENVLLPLNEPVHGTKRRSQIQTFLDHHGGPGVQHIALASDDVLRTLREMRARSAMGGFEFLPPPLSDYYDGVRRCAGDVLTEAQINECQELGVMVDRDDQGVLLQIFTKPVGDRPTFFLEIIQRIGCMEKDEKGQEYQKGGCGGFGKGNFGQLFKSIEDYEKSLEAKQAAAAATAQGS", "modifications": "Zea mays variant form created by artificial means.", "notes": "backbone for saturation mutagenesis"}, "B2": {"name": "P056028-G-01R (protein)", "chain": "B1 chain with Y211L, S214N, R340K, Q366E, M394R, A432K, Q434R", "modifications": "Zea mays variant form created by artificial means."}},
  "type_in_all_cases": "biochemical, Z. mays",
  "key": {"[1]": {"system": "4-hydroxyphenylpyruvate dioxygenase (HPPD)", "test": "ON rate ratio: HPPD reaction rate with vs without inhibitor in the 70 to 90 second interval", "conditions": "for Insensitivity, isoxaflutole (DKN), Rate ratio ON: inhibitor diketonitrile form of isoxaflutole (DKN); for Insensitivity, mesotrione, Rate ratio ON: inhibitor mesotrione; for Insensitivity, sulcotrione, Rate ratio ON: inhibitor sulcotrione; for Insensitivity, tembotrione, Rate ratio ON: inhibitor tembotrione; for Insensitivity, topramezone, Rate ratio ON: inhibitor topramezone", "method_in_brief": "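Time courses of HPPD reactions, 60 or 120 nM enzyme with 100 μM HPP substrate, run with and without 4 μM inhibitor (e.g. mesotrione, tembotrione). Value is the rate with inhibitor over rate without, taken over 70–90 s; higher ratio reflects slower kON.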"}, "[2]": {"system": "4-hydroxyphenylpyruvate dioxygenase (HPPD)", "test": "OFF rate ratio: release of inhibitor from pre-formed enzyme-inhibitor complex", "conditions": "for Insensitivity, isoxaflutole (DKN), Rate ratio OFF: inhibitor diketonitrile form of isoxaflutole (DKN); for Insensitivity, mesotrione, Rate ratio OFF: inhibitor mesotrione; for Insensitivity, sulcotrione, Rate ratio OFF: inhibitor sulcotrione; for Insensitivity, tembotrione, Rate ratio OFF: inhibitor tembotrione; for Insensitivity, topramezone, Rate ratio OFF: inhibitor topramezone", "method_in_brief": "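HPPD (7.2 μM) pre-incubated 1 h at RT with inhibitor (8 μM), then diluted into 25 mM Hepes pH 7, 2 mM ascorbate, 10 μM FeSO4, 100 μM HPP, 50 nM HGD; A320 followed 12 min. Ratio = steady-state rate with inhibitor over initial rate of inhibitor-free enzyme.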"}, "[3]": {"system": "4-hydroxyphenylpyruvate dioxygenase (HPPD)", "test": "Insensitivity parameter (ON × OFF) and trait fitness (ON × OFF × kcat/KM or × kcat)", "parameters": "key to ON × OFF / Insensitivity, mesotrione, ON × OFF / Insensitivity, tembotrione, ON × OFF / Insensitivity, topramezone, ON × OFF / Insensitivity, sulcotrione, ON × OFF / Insensitivity, isoxaflutole (DKN), ON × OFF: insensitivity = ON rate ratio × OFF rate ratio (surrogate for KD)", "conditions": "for Insensitivity, isoxaflutole (DKN), ON × OFF / Insensitivity, isoxaflutole (DKN), Trait fitness: inhibitor diketonitrile form of isoxaflutole (DKN); for Insensitivity, mesotrione, ON × OFF / Insensitivity, mesotrione, Trait Fitness: inhibitor mesotrione; for Insensitivity, sulcotrione, ON × OFF / Insensitivity, sulcotrione, Trait fitness: inhibitor sulcotrione; for Insensitivity, tembotrione, ON × OFF / Insensitivity, tembotrione, Trait fitness: inhibitor tembotrione; for Insensitivity, topramezone, ON × OFF / Insensitivity, topramezone, Trait Fitness: inhibitor topramezone", "method_in_brief": "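Calculated, not measured directly: ON rate ratio × OFF rate ratio gives an insensitivity parameter serving as a KD surrogate.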"}, "[4]": {"system": "4-hydroxyphenylpyruvate dioxygenase (HPPD)", "test": "Estimate of kcat from initial rate at saturating hydroxyphenylpyruvate without inhibitor (ON rate ratio assay)", "method_in_brief": "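Reactions used 60 or 120 nM HPPD and saturating 100 μM hydroxyphenylpyruvate without inhibitor. kcat was estimated from the initial rate at the known enzyme concentration.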"}, "[5]": {"conditions": "Table 7, tembotrione, combinatorial variants"}, "[6]": {"conditions": "Table 5, tembotrione, fold vs maize wild type HPPD"}, "[7]": {"conditions": "Table 7, combinatorial variants"}},
  "note": "Substitutions are numbered along the chain they refer to.",
  "data": [
    {"molecule": "B1", "values": [
      {"measurement": "ON ratio (parameters with tembotrione)", "setting": "[1]; Table 5, tembotrione", "result": 0.74},
      {"measurement": "ON rate ratio", "setting": "[1]; [5]", "result": 0.744},
      {"measurement": "Insensitivity, isoxaflutole (DKN), Rate ratio ON", "setting": "[1]", "result": 0.82},
      {"measurement": "Insensitivity, mesotrione, Rate ratio ON", "setting": "[1]", "result": 0.66},
      {"measurement": "Insensitivity, sulcotrione, Rate ratio ON", "setting": "[1]", "result": 0.81},
      {"measurement": "Insensitivity, tembotrione, Rate ratio ON", "setting": "[1]", "result": 0.80},
      {"measurement": "Insensitivity, topramezone, Rate ratio ON", "setting": "[1]", "result": 0.79},
      {"measurement": "ON rate ratio", "setting": "[1]; mesotrione", "result": 0.67},
      {"measurement": "OFF ratio (parameters with tembotrione)", "setting": "[2]; Table 5, tembotrione", "result": 0.21},
      {"measurement": "OFF rate ratio", "setting": "[2]; [5]", "result": 0.116},
      {"measurement": "Insensitivity, isoxaflutole (DKN), Rate ratio OFF", "setting": "[2]", "result": 0.20},
      {"measurement": "Insensitivity, mesotrione, Rate ratio OFF", "setting": "[2]", "result": 0.89},
      {"measurement": "Insensitivity, sulcotrione, Rate ratio OFF", "setting": "[2]", "result": 0.71},
      {"measurement": "Insensitivity, tembotrione, Rate ratio OFF", "setting": "[2]", "result": 0.22},
      {"measurement": "Insensitivity, topramezone, Rate ratio OFF", "setting": "[2]", "result": 0.25},
      {"measurement": "OFF rate ratio", "setting": "[2]; mesotrione", "result": 0.83},
      {"measurement": "Insensitivity parameter, ON × OFF", "setting": "[3]; DKN (diketonitrile form of isoxaflutole)", "result": 0.24},
      {"measurement": "ON × OFF", "setting": "[3]; Megatable 3, shuffled variants", "result": 0.086},
      {"measurement": "ON × OFF × kcat", "setting": "[3]; Megatable 3, shuffled variants", "result": 3.45},
      {"measurement": "Insensitivity parameter, ON × OFF", "setting": "[3]; Mesotrione, Table 6", "result": 0.45},
      {"measurement": "Insensitivity parameter, ON × OFF", "setting": "[3]; Sulcotrione", "result": 0.56},
      {"measurement": "ON × OFF × kcat, Value", "setting": "[3]; Table 5, tembotrione", "result": 5.25},
      {"measurement": "ON × OFF × kcat, Fold vs wt", "setting": "[3]; [6]", "result": 4.90},
      {"measurement": "ON × OFF, fold vs wt", "setting": "[3]; [6]", "result": 30.0},
      {"measurement": "ON × OFF (parameters with tembotrione)", "setting": "[3]; Table 5, tembotrione, insensitivity parameter", "result": 0.15},
      {"measurement": "ON × OFF", "setting": "[3]; [5]", "result": 0.086},
      {"measurement": "ON × OFF × kcat", "setting": "[3]; [5]", "result": 3.45},
      {"measurement": "Insensitivity parameter, ON × OFF", "setting": "[3]; Tembotrione", "result": 0.19},
      {"measurement": "Insensitivity parameter, ON × OFF", "setting": "[3]; Topramezon", "result": 0.26},
      {"measurement": "Insensitivity, isoxaflutole (DKN), ON × OFF", "setting": "[3]", "result": 0.11},
      {"measurement": "Insensitivity, isoxaflutole (DKN), Trait fitness", "setting": "[3]", "result": 3.30},
      {"measurement": "Insensitivity, mesotrione, ON × OFF", "setting": "[3]", "result": 0.59},
      {"measurement": "Insensitivity, mesotrione, Trait Fitness", "setting": "[3]", "result": 18.1},
      {"measurement": "Insensitivity, sulcotrione, ON × OFF", "setting": "[3]", "result": 0.38},
      {"measurement": "Insensitivity, sulcotrione, Trait fitness", "setting": "[3]", "result": 11.8},
      {"measurement": "Insensitivity, tembotrione, ON × OFF", "setting": "[3]", "result": 0.17},
      {"measurement": "Insensitivity, tembotrione, Trait fitness", "setting": "[3]", "result": 5.36},
      {"measurement": "Insensitivity, topramezone, ON × OFF", "setting": "[3]", "result": 0.13},
      {"measurement": "Insensitivity, topramezone, Trait Fitness", "setting": "[3]", "result": 3.99},
      {"measurement": "Fitness Fold vs Zm wt", "setting": "[3]; mesotrione", "result": 7.9},
      {"measurement": "Insensitivity parameter, ON × OFF", "setting": "[3]; mesotrione, Table 2", "result": 0.56},
      {"measurement": "Insensitivity ON × OFF, Fold vs wt", "setting": "[3]; mesotrione, vs maize wild type", "result": 9.11},
      {"measurement": "kcat", "setting": "[4]; Megatable 3, shuffled variants", "result": 0.667, "unit": "s⁻¹"},
      {"measurement": "kcat", "setting": "[4]; Table 5, single substitutions in Round 7 variant 9070 (SEQ ID NO:2), estimate from initial rate at saturating hydroxyphenylpyruvate without inhibitor", "result": 0.57, "unit": "s⁻¹"},
      {"measurement": "kcat", "setting": "[4]; [7]", "result": 0.667, "unit": "s⁻¹"}
    ]},
    {"molecule": "B2", "values": [
      {"measurement": "ON rate ratio", "setting": "[1]; [5]", "result": 0.719},
      {"measurement": "Insensitivity, isoxaflutole (DKN), Rate ratio ON", "setting": "[1]", "result": 0.77},
      {"measurement": "Insensitivity, mesotrione, Rate ratio ON", "setting": "[1]", "result": 0.73},
      {"measurement": "Insensitivity, sulcotrione, Rate ratio ON", "setting": "[1]", "result": 0.75},
      {"measurement": "Insensitivity, tembotrione, Rate ratio ON", "setting": "[1]", "result": 0.72},
      {"measurement": "Insensitivity, topramezone, Rate ratio ON", "setting": "[1]", "result": 0.81},
      {"measurement": "OFF rate ratio", "setting": "[2]; [5]", "result": 0.280},
      {"measurement": "Insensitivity, isoxaflutole (DKN), Rate ratio OFF", "setting": "[2]", "result": 0.38},
      {"measurement": "Insensitivity, mesotrione, Rate ratio OFF", "setting": "[2]", "result": 1.00},
      {"measurement": "Insensitivity, sulcotrione, Rate ratio OFF", "setting": "[2]", "result": 1.11},
      {"measurement": "Insensitivity, tembotrione, Rate ratio OFF", "setting": "[2]", "result": 0.28},
      {"measurement": "Insensitivity, topramezone, Rate ratio OFF", "setting": "[2]", "result": 0.53},
      {"measurement": "ON × OFF", "setting": "[3]; Megatable 3, shuffled variants", "result": 0.201},
      {"measurement": "ON × OFF × kcat", "setting": "[3]; Megatable 3, shuffled variants", "result": 14.24},
      {"measurement": "ON × OFF", "setting": "[3]; [5]", "result": 0.201},
      {"measurement": "ON × OFF × kcat", "setting": "[3]; [5]", "result": 14.24},
      {"measurement": "Insensitivity, isoxaflutole (DKN), ON × OFF", "setting": "[3]", "result": 0.29},
      {"measurement": "Insensitivity, isoxaflutole (DKN), Trait fitness", "setting": "[3]", "result": 3.98},
      {"measurement": "Insensitivity, mesotrione, ON × OFF", "setting": "[3]", "result": 0.73},
      {"measurement": "Insensitivity, mesotrione, Trait Fitness", "setting": "[3]", "result": 25.6},
      {"measurement": "Insensitivity, sulcotrione, ON × OFF", "setting": "[3]", "result": 0.83},
      {"measurement": "Insensitivity, sulcotrione, Trait fitness", "setting": "[3]", "result": 11.5},
      {"measurement": "Insensitivity, tembotrione, ON × OFF", "setting": "[3]", "result": 0.20},
      {"measurement": "Insensitivity, tembotrione, Trait fitness", "setting": "[3]", "result": 7.09},
      {"measurement": "Insensitivity, topramezone, ON × OFF", "setting": "[3]", "result": 0.43},
      {"measurement": "Insensitivity, topramezone, Trait Fitness", "setting": "[3]", "result": 5.91},
      {"measurement": "kcat", "setting": "[4]; Megatable 3, shuffled variants", "result": 1.18, "unit": "s⁻¹"},
      {"measurement": "kcat", "setting": "[4]; [7]", "result": 1.18, "unit": "s⁻¹"}
    ]}
  ]
}
